Measured values reported in the supplement of paper PMC9233669.
Variants at the floor of the assay were thinned out.

Key:
biotinyl-Phe-oxazolone = test: self-aminoacylation, catalytic enhancement (BFO) (fold over background); higher = more active; k-Seq, kA / k0A0; sequences stand for … in GGGAAUGGAUCCACAUCUACGAAUUC…UUCACUGCAGACUUGACGAAGCUG
Method in brief: (§1)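 Mutagenized RNA pools (0.43 μM; 21-nt variable region) were treated with 2–1250 μM of each biotinyl-aminoacyl-oxazolone. Conditions were 50 μL HEPES/NaCl/KCl/MgCl2/CaCl2 buffer, 5% acetonitrile, pH 6.9–7.0, room temperature, 90 minutes. Catalytic enhancement, the median kA relative to the uncatalyzed rate, was derived from streptavidin capture, qPCR and Illumina sequencing.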

biotinyl-Val-oxazolone = test: self-aminoacylation, catalytic enhancement (BVO) (fold over background); higher = more active; k-Seq, kA / k0A0; sequences stand for … in GGGAAUGGAUCCACAUCUACGAAUUC…UUCACUGCAGACUUGACGAAGCUG
Method in brief: as §1

biotinyl-Trp-oxazolone = test: self-aminoacylation, catalytic enhancement (BWO) (fold over background); higher = more active; k-Seq, kA / k0A0; sequences stand for … in GGGAAUGGAUCCACAUCUACGAAUUC…UUCACUGCAGACUUGACGAAGCUG
Method in brief: as §1

biotinyl-Leu-oxazolone = test: self-aminoacylation, catalytic enhancement (BLO) (fold over background); higher = more active; k-Seq, kA / k0A0; sequences stand for … in GGGAAUGGAUCCACAUCUACGAAUUC…UUCACUGCAGACUUGACGAAGCUG
Method in brief: as §1

biotinyl-Met-oxazolone = test: self-aminoacylation, catalytic enhancement (BMO) (fold over background); higher = more active; k-Seq, kA / k0A0; sequences stand for … in GGGAAUGGAUCCACAUCUACGAAUUC…UUCACUGCAGACUUGACGAAGCUG
Method in brief: as §1

biotinyl-Ile-oxazolone = test: self-aminoacylation, catalytic enhancement (BIO) (fold over background); higher = more active; k-Seq, kA / k0A0; sequences stand for … in GGGAAUGGAUCCACAUCUACGAAUUC…UUCACUGCAGACUUGACGAAGCUG
Method in brief: as §1

| Sequence | self-aminoacylation (biotinyl-Phe-oxazolone) | self-aminoacylation (biotinyl-Val-oxazolone) | self-aminoacylation (biotinyl-Trp-oxazolone) | self-aminoacylation (biotinyl-Leu-oxazolone) | self-aminoacylation (biotinyl-Met-oxazolone) | self-aminoacylation (biotinyl-Ile-oxazolone) |
| --- | --- | --- | --- | --- | --- | --- |
| UAGUUUGCUGAUAGUCGCAAG [Fam3.1 aminoacylation ribozyme variant] | 2.35 | 1.47 | 1.61 | 1.08 | 0.993 | 1.61 |
| AUUCCCCUAGGCCAUCGGGUG [Fam2.2 aminoacylation ribozyme variant] | 119 | 9.59 | 12.5 | 19.3 | 13.6 | 8.31 |
| AUUUCCCUAGGUCAUCGGGUG [Fam2.2 aminoacylation ribozyme variant] | 70.4 | 6.97 | 9.73 | 13.5 | 10.3 | 6.29 |
| AUUACCCCGGUCAUCGCGUGA [Fam2.1 aminoacylation ribozyme variant] | 174 | 11.8 | 23.8 | 24.3 | 23.7 | 11.2 |
| AUUCACCUAGGUAAUCGGGUU [Fam2.2 aminoacylation ribozyme variant] | 0.331 | 1.16 | 0.977 | 1.17 | 1.09 | 0.997 |
| CUUCUGCAAACAAUCGGUCUG [Fam1A.1 aminoacylation ribozyme variant] | 1.52 | 0.889 | 0.919 | 0.795 | 0.85 | 0.957 |
| AUGUACCUAGGUCAUCGGGUG [Fam2.2 aminoacylation ribozyme variant] | 34 | 3.08 | 5.8 | 5.37 | 5.49 | 3.62 |
| AUUACCCUACUCAUCGAGUGA [Fam2.1 aminoacylation ribozyme variant] | 35.1 | 3.19 | 9 | 6.54 | 7.19 | 3.24 |
| AUGCACCUAGGUCAUCGGUUG [Fam2.2 aminoacylation ribozyme variant] | 5.04 | 1.24 | 1.48 | 1.28 | 1.26 | 1.42 |
| AUUAUCCUAGGUCAUCGGGUG [Fam2.2 aminoacylation ribozyme variant] | 54.6 | 5.98 | 9.09 | 14.5 | 9.84 | 6.74 |
| CCACACUUCAUGGAAUCGGUC [Fam1B.1 aminoacylation ribozyme variant] | 0.928 | 1.1 | 0.598 | 0.946 | 0.836 | 0.858 |
| AUUAGCCUGGUCCUCGAGUGA [Fam2.1 aminoacylation ribozyme variant] | 36.7 | 2.84 | 5.08 | 5.41 | 4.69 | 2.67 |
| CUACCUCAAACACUCGGUCUG [Fam1A.1 aminoacylation ribozyme variant] | 1.74 | 1.6 | 1.93 | 1.31 | 1.08 | 1.22 |
| AUUACCCUGCUUAUCGAGUGA [Fam2.1 aminoacylation ribozyme variant] | 2.4 | 1.37 | 2.33 | 1.96 | 1.64 | 1.29 |
| AAUACCCUGGACAUCGAGUGA [Fam2.1 aminoacylation ribozyme variant] | 10.5 | 2.25 | 5.44 | 4.14 | 3.95 | 2.25 |
| UUUUACCUAGGUCAUCGGGUG [Fam2.2 aminoacylation ribozyme variant] | 56.1 | 6.67 | 10.4 | 13.5 | 10.3 | 6.78 |
| AAGUUUCCUAAUAGUCGCAAG [Fam3.1 aminoacylation ribozyme variant] | 2.47 | 1.36 | 1.62 | 1.42 | 1.34 | 1.57 |
| AAGUGUGCUAAUAGUCGCACG [Fam3.1 aminoacylation ribozyme variant] | 2.38 | 1.04 | 2.16 | 1.5 | 1.6 | 1.19 |
| CUACUUCGAACAAUCGGCCUG [Fam1A.1 aminoacylation ribozyme variant] | 4.78 | 1.54 | 1.84 | 1.36 | 1.71 | 1.6 |
| CUACUUCAAACAAUCCAUCUG [Fam1A.1 aminoacylation ribozyme variant] | 1.08 | 0.748 | 0.402 | 0.546 | 0.489 | 0.656 |
| AAGUUUGGGAAUAGUCGCAAG [Fam3.1 aminoacylation ribozyme variant] | 1.95 | 1.25 | 1.69 | 1.05 | 0.876 | 1.32 |
| AUGCACCAAGGUCAUCGGGUG [Fam2.2 aminoacylation ribozyme variant] | 59.9 | 5.23 | 9.96 | 9.2 | 7.84 | 4.95 |
